Measurements reported in patent US20100041873A1 (ZymoGenetics, published 2010).
Several values for one entry are separate records, joined by “and”; a condition that tells them apart may be missing. Identical values can stand only once. No end group written: not given here.

T1: Human IL-21 peptide #1 (pyr30-K50) (human, N-terminal pyroGlu)
T1 construct: coated on ELISA plates; also called Peptide 1 N-Term
T1 peptide: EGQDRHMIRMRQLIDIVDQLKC

T2: Human IL-21 peptide #3 (N97-C122) (human)
T2 peptide: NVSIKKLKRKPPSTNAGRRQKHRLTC

T3: Human IL-21 peptide #2 (N54-C71) (human)
T3 peptide: NDLVPEFLPAPEDVETNC

T4: Hu IL-21 Peptide A1750 (conjugated to ovalbumin) (human, also: chemically conjugated to ovalbumin)
T4 construct: also called peptide #2 N54-C71 conjugated to ovalbumin
T4 peptide: NDLVPEFLPAPEDVETNC

T5: Hu IL-21 Peptide A1751 (conjugated to ovalbumin) (human, conjugated to ovalbumin)
T5 construct: also called peptide #3 N97-C122 conjugated to ovalbumin
T5 peptide: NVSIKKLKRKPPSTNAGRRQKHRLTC

T6: Recombinant human IL-4 (human, UniProt P05112 25-153)
T6 construct: also called Hu IL-4
T6 sequence (looked up): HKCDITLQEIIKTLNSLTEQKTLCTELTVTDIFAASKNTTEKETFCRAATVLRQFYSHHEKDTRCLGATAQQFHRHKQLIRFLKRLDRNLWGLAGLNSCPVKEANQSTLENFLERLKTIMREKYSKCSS

T7: Recombinant human IL-7 (human, UniProt P13232 26-177)
T7 construct: also called Hu IL-7
T7 sequence (looked up): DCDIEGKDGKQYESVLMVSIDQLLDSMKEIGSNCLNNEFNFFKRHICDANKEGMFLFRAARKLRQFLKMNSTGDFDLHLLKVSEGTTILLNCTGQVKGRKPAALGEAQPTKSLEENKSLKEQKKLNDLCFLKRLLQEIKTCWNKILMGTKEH


Legend:
Recombinant human IL-21 [1] = target: T8, Recombinant human IL-21 (human, UniProt Q9HBE4 30-162); assay: cell-based or functional assay
T8 sequence (Q9HBE4 30-162 limits assumed): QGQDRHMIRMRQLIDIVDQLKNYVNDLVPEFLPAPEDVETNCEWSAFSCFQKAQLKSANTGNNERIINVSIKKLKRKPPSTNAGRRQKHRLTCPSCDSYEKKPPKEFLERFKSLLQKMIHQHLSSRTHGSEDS

Recombinant human IL-21 [2] = target: T8, Recombinant human IL-21; assay: cell-based or functional assay; remark: listed apart in the source
[3] = target: T9, Recombinant cynomolgus IL-21 (cynomolgus monkey, UniProt Q9HBE4 30-162 (human entry), limits assumed); assay: cell-based or functional assay
T9 sequence (Q9HBE4 other isoform, or with tags, fused parts or gaps limits assumed): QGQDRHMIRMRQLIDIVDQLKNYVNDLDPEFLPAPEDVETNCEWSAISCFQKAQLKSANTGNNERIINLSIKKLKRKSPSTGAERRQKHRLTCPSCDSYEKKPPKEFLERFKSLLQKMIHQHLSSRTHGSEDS

Recombinant murine IL-21 [4] = target: T10, Recombinant murine IL-21 (mouse, UniProt Q9ES17 18-146); assay: cell-based or functional assay
Recombinant rat IL-21 = Recombinant rat IL-21 (rat, UniProt A3QPB9 18-146, limits assumed); assay: cell-based or functional assay
Sequence of Recombinant rat IL-21 (A3QPB9 18-146 limits assumed): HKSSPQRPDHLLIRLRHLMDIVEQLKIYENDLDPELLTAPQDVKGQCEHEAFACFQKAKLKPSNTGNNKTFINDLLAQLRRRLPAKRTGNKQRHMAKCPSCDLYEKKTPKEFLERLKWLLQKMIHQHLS

Recombinant human IL-21 [5] = target: T8, Recombinant human IL-21; assay: cell-based or functional assay; remark: listed apart in the source
Recombinant human IL-21 [6] = target: T8, Recombinant human IL-21; assay: cell-based or functional assay; remark: listed apart in the source
[7] = target: T1, Human IL-21 peptide #1 (pyr30-K50); assay: direct ELISA
Protocol: (§1) Wells were blocked with 200 μL/well of Blocking Buffer (PBS-Tween plus 1% w/v bovine serum albumin (BSA)) for 1 hour, after which the plates were washed twice with Wash Buffer. Antibody dilutions were prepared in 5% fetal bovine serum (FBS)/Iscove's Modified Dulbecco's Media (IMDM) medium and adjusted to 1 μg/ml. […] Following 1 hour incubation at ambient temperature, the wells were aspirated and the plates washed twice as described above. Horseradish peroxidase (HRP) labeled Goat anti Mouse IgG, Fc specific or Goat anti Rat IgG, Fc specific, or Goat anti Human IgG, Fc specific (Jackson ImmunoResearch Laboratories, West Grove, Pa.) at a dilution of 1:5000 with 5% FBS/IMDM medium was then added to each well, 100 μL/well, and the plates incubated at ambient temperature for 1 hour. After removal of unbound HRP conjugated antibody, the plates were washed five times, 100 μL /well of tetra methyl benzidine (TMB) (BioFX Laboratories, Owings Mills, Md.) added to each well and the plates incubated for 3 minutes at ambient temperature. Color development was stopped by the addition of 100 μL /well of 450 nm TMB Stop Reagent (BioFX Laboratories, Owings Mills, Md.) and the absorbance values of the wells read on a Molecular Devices Spectra MAX 340 instrument at 450 nm.

[8] = target: T2, Human IL-21 peptide #3 (N97-C122); assay: direct ELISA
Protocol: as §1

[9] = target: T11, Human IL-21 peptide #4 (C125-S153) (human); assay: direct ELISA
T11 construct: also called Peptide 4 C-Term
T11 sequence (peptide, as listed by the source): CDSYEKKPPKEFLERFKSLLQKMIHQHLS
Protocol: as §1

[10] = target: T12, Recombinant mutant human IL-21 (human, UniProt Q9HBE4 30-162, limits assumed); assay: direct ELISA
T12 construct: also called IL-21 mutant; mutant human IL-21 protein
T12 sequence (Q9HBE4 other isoform, or with tags, fused parts or gaps mutant limits assumed): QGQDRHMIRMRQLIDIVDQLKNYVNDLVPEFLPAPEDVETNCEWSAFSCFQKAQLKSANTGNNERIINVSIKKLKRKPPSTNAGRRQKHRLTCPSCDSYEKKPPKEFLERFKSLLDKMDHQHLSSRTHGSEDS
Protocol: as §1

[11] = target: T3, Human IL-21 peptide #2 (N54-C71); assay: direct ELISA
Protocol: as §1

[12] = target: T4, Hu IL-21 Peptide A1750 (conjugated to …); assay: Western blot
Protocol: (§2) For Western blots, the non-specific sites on the membranes were blocked with a buffer containing 20 mM Tris, pH 7.4, 0.5 mM EDTA, 0.5% IGEPAL CA-630, 150 mM NaCl, 0.25% gelatin, and 1% casein hydrolysate blocking solution (Western Blocking Reagent, Roche Diagnostics, Inc., Basel Switerzerland) (Blocking Buffer). The membranes were then incubated for 2 hrs at room temperature with purified monoclonal antibody (10 ng/ml or 100 ng/ml) in the Blocking Buffer followed by a 2 hr incubation with peroxidase conjugated donkey anti-human IgG (Jackson Laboratories, Bar Harbor, Me.). The membranes were washed 5 times with the Tris/EDTA/IGEPAL/NaCl/gelatin Blocking buffer which lacked the casein hydrolysate and developed with SUPERSIGNAL™ DuraWest Luminol/Enhancer/Peroxidase Solution (Pierce, Rockford, Ill.) for chemoluminescence detection. The blots were visualized using X-ray film based standard methods.

[13] = target: T5, Hu IL-21 Peptide A1751 (conjugated to …); assay: Western blot
Protocol: as §2

[14] = target: T13, Hu IL-21 Peptide A1752 (conjugated to ovalbumin) (human, conjugated to ovalbumin); assay: Western blot
T13 construct: also called peptide #4 C125-S153 conjugated to ovalbumin
Protocol: as §2

Recombinant murine IL-21 [15] = target: T10, Recombinant murine IL-21; assay: Western blot
Protocol: as §2

Recombinant human IL-4 = target: T6, Recombinant human IL-4; assay: Western blot
Recombinant human IL-9 = target: T14, Recombinant human IL-9 (human, UniProt P15248 19-144); assay: Western blot
T14 construct: also called Hu IL-9
T14 sequence (P15248 19-144 limits assumed): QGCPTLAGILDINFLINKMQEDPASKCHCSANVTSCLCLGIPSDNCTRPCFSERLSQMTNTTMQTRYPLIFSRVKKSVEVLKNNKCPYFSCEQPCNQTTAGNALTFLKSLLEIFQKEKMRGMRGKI

Recombinant human IL-7 = target: T7, Recombinant human IL-7; assay: Western blot
Recombinant human IL-2 = target: T15, Recombinant human IL-2 (human, UniProt P60568 21-153); assay: Western blot
T15 construct: also called Hu IL-2
T15 sequence (P60568 21-153 limits assumed): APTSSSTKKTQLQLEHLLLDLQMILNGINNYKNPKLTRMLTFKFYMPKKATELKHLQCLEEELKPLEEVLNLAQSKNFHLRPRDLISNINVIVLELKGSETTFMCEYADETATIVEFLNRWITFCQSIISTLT

Recombinant human IL-15 = target: T16, Recombinant human IL-15 (human, UniProt P40933 49-162); assay: Western blot
T16 construct: also called Hu IL-15
T16 sequence (P40933 49-162 limits assumed): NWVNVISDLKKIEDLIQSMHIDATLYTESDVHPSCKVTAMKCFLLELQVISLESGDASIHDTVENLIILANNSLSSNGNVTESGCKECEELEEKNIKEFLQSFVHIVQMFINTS

[16] = target: T9, Recombinant cynomolgus IL-21; assay: Western blot
Protocol: as §2

IC50 (pM), STAT3-phosphorylation assay, Expt #1 (Recombinant human IL-21 [1]) [pM]	% IgD-low, CD138+ Plasma Cells, antagonist:ligand 0.16:1 (Recombinant human IL-21 [2]) [%]	% IgD-low, CD138+ Plasma Cells, antagonist:ligand 0.6:1 (Recombinant human IL-21 [2]) [%]	% IgD-low, CD138+ Plasma Cells, antagonist:ligand 2.5:1 (Recombinant human IL-21 [2]) [%]	% IgD-low, CD138+ Plasma Cells, antagonist:ligand 10:1 (Recombinant human IL-21 [2]) [%]	Cyno IL-21 IC50 ([cIL-21] = 100 pM), STAT-Luciferase assay [3]	IC50 (nM), B cell proliferation assay (anti-CD40 + 3.21 nM IL-21) (Recombinant human IL-21 [5]) [nM]	binding result [7]	binding result [8]	binding result [9]	binding result [10]	binding result [11]	binding result [12]	binding result [13]	binding result [14]	binding result (Recombinant human IL-4)	binding result (Recombinant human IL-9)	binding result (Recombinant human IL-7)	binding result (Recombinant human IL-2)	binding result (Recombinant human IL-15)	Binder	further results
25	66.7	54.2	41.7	23.4	20 ng/mL and 385 pM	3.5														Heterodimeric IL-21 soluble receptor (IL-21R/γc-Fc) (Fc fusion, not shown: a dimerising Fc or GST) chain 1: not shown chain 2: LNTTILTPNGNEDTTADFFLTTMPTDSLSVSTLPLPEVQCFVFNVEYMNCTWNSSSEPQPTNLTLHYWYKNSDNDKVQKCSHYLFSEEITSGCQLQKKEIHLYQTFVVQLQDPREPRRQATQMLKLQNLVIPWAPENLTLHKLSESQLELNWNNRFLNHCLEHLVQYRTDWDHSWTEQSVDYRHKFSLPSVDGQKRYTFRVRSRFNPLCGSAQHWSEWSHPIHWGSNTSKENPFLFALEA	IC50 (pM), STAT3-phosphorylation assay, Expt #2 (Recombinant human IL-21 [1]): 102 pM; IC50 (pM), STAT3-phosphorylation assay, Expt #3 (96 pM IL-21) (Recombinant human IL-21 [1]): 140 pM; Murine IL-21 IC50 ([mIL-21] = […] nM), STAT-Luciferase assay (Recombinant murine IL-21 [4]): 426 ng/mL and 8.06 nM; Rat IL-21 IC50 ([rIL-21] = 1.08 nM), STAT-Luciferase assay (Recombinant rat IL-21): 708 ng/mL and 13.4 nM; IC50 (pM), 24 hr STAT-Luciferase assay, Expt #2 (Recombinant human IL-21 [6]): 1830 pM
210	52.1	41.4	20.2	15.4	15 ng/mL and 100 pM	0.71	no binding (tested: 1 ug/ml mAb)	no binding (tested: 1 ug/ml mAb)	no binding (tested: 1 ug/ml mAb)	binds	no binding (tested: 1 ug/ml mAb)	no binding (tested: 10 or 100 ng/ml mAb)	no binding (tested: 10 or 100 ng/ml mAb)	no binding (tested: 10 or 100 ng/ml mAb)	no binding	no binding	no binding	no binding	no binding	Human anti-human IL-21 monoclonal antibody 366.328.10 (antibody, V domains shown, Hybridoma antibody, ATCC PTA-8789; isotype printed as IgG) VH: EVQLVESGGGLVKPGGSLRLSCAASGFIFSSYSMNWVRQAPGKGLEWVSSITSGSYYIHYADSVKGRFTISRDNAKNSLYLQMNSLRAEDTAVYYCVRERGWGYYGMDVWGQGTTVTVSS VL: AIQLTQSPSSLSASVGDRVTITCRASQDIDSALAWYQQKPGKAPKILIHDASSLESGVPSRFSGSGSGTDFTLTISSLQPEDFATYYCQQFNSYPYTFGQGTKLEIK	binding result (Recombinant murine IL-21 [15]): no binding (tested: 10 or 100 ng/ml mAb)
							no binding (tested: 1 ug/ml mAb)	no binding (tested: 1 ug/ml mAb)	binds	no binding (tested: 1 ug/ml mAb)	no binding (tested: 1 ug/ml mAb)	no binding (tested: 10 or 100 ng/ml mAb)	no binding (tested: 10 or 100 ng/ml mAb)	binds	no binding	no binding	no binding	no binding	no binding	Human anti-human IL-21 monoclonal antibody 362.75.1.1 (antibody, V domains shown, Hybridoma antibody, ATCC PTA-8791; isotype printed only as IgG) VH: QLQLQESGPGLVKPSETLSLTCTVSGGSISSRTYRWGWIRQPPGKELEWIGSIYYRGSTFYNPSLKSRVTVSVDTSKNQFSLKLSSVTAADTAVYYCARQSGYSGYDWFDPWGQGTLVTVSS VL: EIVLTQSPATLSLSPGERATLSCRASQSVSSFLAWYQQKPGQAPRLLIYDASNRATGIPARFSGSGSGTDFTLTISSLEPEDFAVYYCQQRSNWITFGQGTRLEIK	binding result [16]: binds
59					23 ng/mL and 156 pM	4.75	no binding (tested: 1 ug/ml mAb)	no binding (tested: 1 ug/ml mAb)		no binding (tested: 1 ug/ml mAb)	no binding (tested: 1 ug/ml mAb)	no binding (tested: 10 or 100 ng/ml mAb)	no binding (tested: 10 or 100 ng/ml mAb)		no binding	no binding	no binding	no binding	no binding	Human anti-human IL-21 monoclonal antibody 366.552.11 (antibody, V domains shown, Hybridoma antibody, ATCC PTA-8787; isotype printed as IgG; also called 366.552.11.31) VH: QVQLQESGPGLVKPSETLSLTCTVSGGSISSDFWGWIRQPPGKGLEWIGYISSRGSTNYNPSLKRRVTISVDTSRNQFSLKLSSVTAADTAVYYCARSAGVTDFDFWGQGTLVTVSS VL: DIQMTQSPSSVSASVGDRVTITCRASQGISSWLAWYQHKPGKAPKLLIYVASSLQSGVPSRFSGSGSGTDFTLTISSLQPEDFATYYCQQANSFPLTFGGGTKVEIK	IC50 (pM), 24 hr STAT-Luciferase assay, Expt #1 (Recombinant human IL-21 [6]): 2400 pM
	42.8	34.1	15.5	13.7			no binding (tested: 1 ug/ml mAb)				no binding (tested: 1 ug/ml mAb)	no binding (tested: 10 or 100 ng/ml mAb)		no binding (tested: 10 or 100 ng/ml mAb)						Human anti-human IL-21 monoclonal antibody 362.78.1.44 (antibody, V domains shown, Hybridoma antibody, ATCC PTA-8790; also called clone 78) VH: QVQLVESGGGVVQPGRSLRLSCAASGFTFSSYGMHWVRQAPGKGLEWVAFIWYDGSDKYYADSVKGRFTISRDNSKNTLYLQMNSLRAEDTAVYYCARDGDSSDWYGDYYFGMDVWGQGTTVTVSS VL: not shown	
							no binding (tested: 1 ug/ml mAb)				no binding (tested: 1 ug/ml mAb)	no binding (tested: 10 or 100 ng/ml mAb)								Human anti-human IL-21 monoclonal antibody 362.597.3 (antibody, V domains shown, Hybridoma antibody, ATCC PTA-8786; isotype printed as IgG; also called 362.597.3.15) VH: QVQLVESGGGVVQPGRSLRLSCAASGFTFSTYGMHWVRQAPGKGLEWVAFIWYDGSDKYYADSVKGRFTISRDNSKNTLYLQMNSLRAEDTAVYYCARDGDSSDWYGDYYFGMDVWGQGTTVTVSS VL: not shown	
